# Source: patent publication US9090882B2, “Compositions and methods for enhanced amino acid levels in plants conferred by lysine and/or threonine feedback insensitive aspartate kinase proteins” (priority 2008, dated 2015)
# Positions count from the first letter of the chain named. Names may count otherwise. Read-outs that look alike come from different tables or passages of the source.
# B1: E. coli T352I lysC gene product: E. coli feedback-insensitive (T352I) lysC aspartate kinase, control (protein, listed as Escherichia coli)
# chain: MSEIVVSKFGGTSVADFDAMNRSADIVLSDANVRLVVLSASAGITNLLVALAEGLEPGERFEKLDAIRNIQFAILERLRYPNVIREEIERLLENITVLAEAAALATSPALTDELVSHGELMSTLLFVEILRERDVQAQWFDVRKVMRTNDRFGRAEPDVAALAELAALQLLPRLNDGLVITQGFIGSENKGRTTTLGRGGSDYTAALLAEALHASRVDIWTDVPGIYTTDPRVVSAAKRIDEIAFAEAAEMATFGAKVLHPATLLPAVRSDIPVFVGSSKDPRAGGTLVCNKTENPPLFRALALRRNQTLLTLHSLNMLHSRGFLAEVFGILARHNISVDLITTSEVSVALTLDTTGSTSTGDTLLTQSLLMELSALCRVEVEEGLALVALIGNDLSKACGVGKEVFGVLEPFNIRMICYGASSHNLCFLVPGEDAEQVVQKLHFNLFE
# B2: E. coli lysC gene product: recombinant E. coli lysC aspartate kinase, control sensitive to feedback inhibition by Lys (protein, UniProt P08660 2-449, looked up)
# Lysine-sensitive …: SEIVVSKFGGTSVADFDAMNRSADIVLSDANVRLVVLSASAGITNLLVALAEGLEPGERFEKLDAIRNIQFAILERLRYPNVIREEIERLLENITVLAEAAALATSPALTDELVSHGELMSTLLFVEILRERDVQAQWFDVRKVMRTNDRFGRAEPDIAALAELAALQLLPRLNEGLVITQGFIGSENKGRTTTLGRGGSDYTAALLAEALHASRVDIWTDVPGIYTTDPRVVSAAKRIDEIAFAEAAEMATFGAKVLHPATLLPAVRSDIPVFVGSSKDPRAGGTLVCNKTENPPLFRALALRRNQTLLTLHSLNMLHSRGFLAEVFGILARHNISVDLITTSEVSVALTLDTTGSTSTGDTLLTQSLLMELSALCRVEVEEGLALVALIGNDLSKACGVGKEVFGVLEPFNIRMICYGASSHNLCFLVPGEDAEQVVQKLHSNLFE
# B3: X. bovienii AK T359I: Xenorhabdus bovienii aspartate kinase variant, Thr 359 replaced with Ile (protein, listed as Xenorhabdus bovienii)
# chain: MCAVSSTYPQYVVAKFGGTSVADFDAMNHCADIILANADVRVVVLSASAGVTNLLVALATGCDNDKRKKCLKQIRDIQYAIIDRLNDVNVICEEIDRLLENIEMLSEAASLATSEALTDELVSHGEVMSTLLFVELLRQRNVNAEWFDIRRVMRTNDHFGRAEPDSLQLHISAVELLQPRLNNTVVITQGFIGREEKGRTTTLGRGGSDYTAALLGEALNLQRVDIWTDVPGIYTTDPRVAPTAKRIDKIAFDEAAEMATFGAKILHPATLLPAIRCGIPVFVGSSKDPQAGGTLVCDKTENPPLFRALALRRKQTLLTLHSLKMLHARGFLAEVFTLLLRHNISVDLITTSEVSVALILDTTGSTSTNGSLLTNALLTELSTLCRVEVEEDLALVAIIGNELSQAKGLGKEIFGTLESFNIRMISYGASSHNVCLLVPGQDAESVIQKLHQNLFKV
# B4: X. bovienii AK Wild Type: purified recombinant His-tagged wild-type Xenorhabdus bovienii aspartate kinase (encoded by SEQ ID NO: 6) (protein, listed as Xenorhabdus bovienii)
# chain: B3 chain with I359T
# modifications: His tag
# B5: X. bovienii AK E257K/T359I: Xenorhabdus bovienii aspartate kinase double variant E257K/T359I (protein, listed as Xenorhabdus bovienii)
# chain: B3 chain with E257K
# B6: X. bovienii AK E257K: Xenorhabdus bovienii aspartate kinase variant, Glu 257 replaced with Lys (protein, listed as Xenorhabdus bovienii)
# chain: B3 chain with E257K, I359T
# Assays:
# [1] = test system: plants; details: expression in plants; Karchi et al. 1993, Galili et al. EP 0485970; cited from earlier work
# [2] = test system: E. coli lysC aspartate kinase; details: known from the literature; cited from earlier work
# [3] = test system: X. bovienii aspartate kinase; assay: Aspartate kinase enzyme assays and kinetic studies (colorimetric hydroxamate / coupled assay) with purified recombinant His-tagged AK; format: biochemical, Xenorhabdus bovienii; details: for Vmax Asp / Km: purified enzyme
# Description: The chimeric plasmids containing AK or the desired mutants were transformed into E. coli BL21 (DE3) cells and transformants were selected on LB (Luria-Bertani) medium containing kanamycin (50 μg/mL). For induction of gene expression, transformants selected from single colonies were grown in 100 mL liquid LB supplemented with ampicillin or kanamycin to approximately 0.6 A600, and 0.4 mM. Isopropyl-β-thiogalactopyranoside (IPTG) (Gold Biotechnologies, St. Louis, Mo.) was added, followed by 15 hours incubation at 21° C. and 220 rpm shaking. Cells were harvested by 30 min centrifugation at 7,000×g and washed once with 20 mM Tris-HCl, 150 mM NaCl, pH 7.4. Washed cell pellets were re-suspended in 50 mM K-phosphate buffer (pH7.4, Buffer A) containing 2 mM MgCl2, 50 mM NaCl, 100 units of benzonase (Novagen, San Diego, Calif.) and protease inhibitor cocktail tablets without EDTA (1 tablet/10 mL) (Boehringer Mannheim, Germany). Cells were broken by three passages through a chilled French press cell (SLM-Aminco Spectronic Instruments), operating at 20,000 psi. The lysate was centrifuged by an ultra-centrifuge for 1 hour at 100,000×g, at 4° C. The resulting supernatant was applied to nickel+-nitrilotriacetic acid (Ni+NTA) agarose column (His-Bind resin, Qiagen) and chromatographed according to the supplier's instructions. The column was washed with 3 bed volumes of Buffer A containing 20 mM imidiazole followed by elution with 300 mM imidazole. Enzymatically active fractions of the N-terminal His-tagged […] were pooled, dialyzed against Buffer A without benzonase, and stored in 15% glycerol solution at −80° C. for use in kinetic studies. The enzyme preparation was over 95% pure as judged by Coomassie Blue-stained SDS-PAGE.
# Colorimetric Hydroxamate Method. The assay mixture (final volume, 0.8 mL) contained 100 Tris-HCl, pH8.0, 40 mM hydroxylamine-KOH, pH8.0, 25 mM ATP-KOH, pH8.0, 20 mM MgCl2, L-aspartic acid, and 150 mM KCl. The reaction was initiated by addition of AK enzyme, and carried out at 37° C. for 15-30 min. The reaction was terminated by addition of 400 μL acidified ferric chloride (0.37 M FeCl3, 20% TCA, and 0.72 M HCl) and followed by the centrifugation at top speed of microcentrifuge. The formed aspartyl-hydroxamate was determined by colorimetrically at 505 nm. The biosynthetic activity was calculated based on the standard curves of L-aspartyl-hydroxamate or ε505nm.
# The assay couples the conversion of ATP to ADP to the oxidation of NADH using pyruvate kinase and lactate dehydrogenase at 30° C. NADH oxidation was monitored kinetically at 340 nm. (See Wampler D E, Westhead E W. (1968), BIOCHEMISTRY 7: 1661-1670.)
# Kinetic parameters were determined by measuring product formation in 100 μL reaction mixtures containing various substrate concentrations ranging from 0 to 25 mM. Controls were included for every assay. Values for Km, Vmax, and Kcat were calculated from the rate of the product formation using Michaelis-Menten equations in conjunction with the curve fitting options in the Grafit 5.0 software (Erithacus software Ltd., Horley, UK) (Table 2).
# [4] = substrate ATP, read-out: Km ATP
# [5] = substrate Asp, read-out: Km Asp
molecule,measurement,setting,value
B1,increase in threonine content of the seed,[1],6-7%
same,feedback inhibition by Lys,[2],lysine-insensitive
B2,feedback inhibition by Lys,[2],sensitive to feedback inhibition by Lys
B3,Vmax Asp,[3],0.26 μmoles · min^−1 · mg^−
same,Km,[3]; [4],1820 µM
same,Km,[3]; [5],2310 µM
B4,IC50,[3]; inhibition of the purified enzyme by lysine,140 µM
same,Vmax Asp,[3],0.29 μmoles · min^−1 · mg^−
same,Km,[3]; [4],2560 µM
same,Km,[3]; [5],2730 µM
B5,Vmax Asp,[3],0.24 μmoles · min^−1 · mg^−
same,Km,[3]; [4],1620 µM
same,Km,[3]; [5],3100 µM
B6,Vmax Asp,[3],0.20 μmoles · min^−1 · mg^−
same,Km,[3]; [4],1890 µM
same,Km,[3]; [5],3060 µM
